B1: Nuclear polyadenylated RNA-binding protein 4 (Saccharomyces cerevisiae), Q99383 (parent)
chain: MSSDEEDFNDIYGDDKPTTTEEVKKEEEQNKAGSGTSQLDQLAALQALSSSLNKLNNPNSNNSSSNNSNQDTSSSKQDGTANDKEGSNEDTKNEKKQESATSANANANASSAGPSGLPWEQLQQTMSQFQQPSSQSPPQQQVTQTKEERSKADLSKESCKMFIGGLNWDTTEDNLREYFGKYGTVTDLKIMKDPATGRSRGFGFLSFEKPSSVDEVVKTQHILDGKVIDPKRAIPRDEQDKTGKIFVGGIGPDVRPKEFEEFFSQWGTIIDAQLMLDKDTGQSRGFGFVTYDSADAVDRVCQNKFIDFKDRKIEIKRAEPRHMQQKSSNNGGNNGGNNMNRRGGNFGNQGDFNQMYQNPMMGGYNPMMNPQAMTDYYQKMQEYYQQMQKQTGMDYTQMYQQQMQQMAMMMPGFAMPPNAMTLNQPQQDSNATQGSPAPSDSDNNKSNDVQTIGNTSNTDSGSPPLNLPNGPKGPSQYNDDHNSGYGYNRDRGDRDRNDRDRDYNHRSGGNHRRNGRGGRGGYNRRNNGYHPYNR
partner: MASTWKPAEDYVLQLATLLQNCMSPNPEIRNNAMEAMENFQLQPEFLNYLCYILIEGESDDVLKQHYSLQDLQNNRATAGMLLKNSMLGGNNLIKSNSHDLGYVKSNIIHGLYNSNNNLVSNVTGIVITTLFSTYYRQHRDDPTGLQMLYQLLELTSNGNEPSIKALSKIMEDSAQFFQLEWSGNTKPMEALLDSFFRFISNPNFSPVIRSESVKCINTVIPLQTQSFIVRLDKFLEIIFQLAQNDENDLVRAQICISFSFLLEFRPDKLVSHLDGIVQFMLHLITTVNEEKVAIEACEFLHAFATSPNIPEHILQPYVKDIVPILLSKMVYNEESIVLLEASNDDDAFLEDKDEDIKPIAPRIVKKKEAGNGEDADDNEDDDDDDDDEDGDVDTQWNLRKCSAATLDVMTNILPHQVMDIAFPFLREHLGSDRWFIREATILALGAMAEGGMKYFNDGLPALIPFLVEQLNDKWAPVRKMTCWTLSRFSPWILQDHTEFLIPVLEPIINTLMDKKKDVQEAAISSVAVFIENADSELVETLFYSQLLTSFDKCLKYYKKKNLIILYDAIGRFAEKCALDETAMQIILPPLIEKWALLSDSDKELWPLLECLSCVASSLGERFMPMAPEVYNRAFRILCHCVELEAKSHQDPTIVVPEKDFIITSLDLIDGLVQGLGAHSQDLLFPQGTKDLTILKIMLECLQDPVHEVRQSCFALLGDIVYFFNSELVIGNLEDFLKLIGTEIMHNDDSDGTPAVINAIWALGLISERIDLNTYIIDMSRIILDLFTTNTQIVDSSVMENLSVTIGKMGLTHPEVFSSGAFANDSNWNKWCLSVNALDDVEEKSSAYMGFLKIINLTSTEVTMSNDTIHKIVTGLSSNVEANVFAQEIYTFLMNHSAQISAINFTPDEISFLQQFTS
B2: Nuclear polyadenylated RNA-binding protein NAB2 (Saccharomyces cerevisiae), P32505 (parent)
chain: MSQEQYTENLKVIVAEKLAGIPNFNEDIKYVAEYIVLLIVNGGTVESVVDELASLFDSVSRDTLANVVQTAFFALEALQQGESAENIVSKIRMMNAQSLGQSDIAQQQQQQQQQQQPDIAQQQPQQQPQQQPQQQPQQQPQQQPQQQPQQQPQQQPQLQPLQPQLGTQNAMQTDAPATPSPISAFSGVVNAAAPPQFAPVDNSQRFTQRGGGAVGKNRRGGRGGNRGGRNNNSTRFNPLAKALGMAGESNMNFTPTKKEGRCRLFPHCPLGRSCPHAHPTKVCNEYPNCPKPPGTCEFLHPNEDEELMKEMERTREEFQKRKADLLAAKRKPVQTGIVLCKFGALCSNPSCPFGHPTPANEDAKVIDLMWCDKNLTCDNPECRKAHSSLSKIKEVKPISQKKAAPPPVEKSLEQCKFGTHCTNKRCKYRHARSHIMCREGANCTRIDCLFGHPINEDCRFGVNCKNIYCLFRHPPGRVLPEKKGAAPNSNVPTNERPFALPENAIIENAPPQTSFTHQEQDTEMN
partner: B1 partner

Variants of: B1
Conditions: with imb2_yeast KAP104, P38217

Variant	effect of a mutation on the interaction
MSSDEEDFNDIYGDDKPTTTEEVKKEEEQNKAGSGTSQLDQLAALQALSSSLNKLNNPNSNNSSSNNSNQDTSSSKQDGTANDKEGSNEDTKNEKKQESATSANANANASSAGPSGLPWEQLQQTMSQFQQPSSQSPPQQQVTQTKEERSKADLSKESCKMFIGGLNWDTTEDNLREYFGKYGTVTDLKIMKDPATGRSRGFGFLSFEKPSSVDEVVKTQHILDGKVIDPKRAIPRDEQDKTGKIFVGGIGPDVRPKEFEEFFSQWGTIIDAQLMLDKDTGQSRGFGFVTYDSADAVDRVCQNKFIDFKDRKIEIKRAEPRHMQQKSSNNGGNNGGNNMNRRGGNFGNQGDFNQMYQNPMMGGYNPMMNPQAMTDYYQKMQEYYQQMQKQTGMDYTQMYQQQMQQMAMMMPGFAMPPNAMTLNQPQQDSNATQGSPAPSDSDNNKSNDVQTIGNTSNTDSGSPPLNLPNGPKGPSQYNDDHNSGYGYNRDRGDRDRNDRDRDYNHRSGGNHAANGAGGAGGYNRRNNGYHPYNR [R512A;R513A;R516A;R519A]	disrupting interaction strength
MSSDEEDFNDIYGDDKPTTTEEVKKEEEQNKAGSGTSQLDQLAALQALSSSLNKLNNPNSNNSSSNNSNQDTSSSKQDGTANDKEGSNEDTKNEKKQESATSANANANASSAGPSGLPWEQLQQTMSQFQQPSSQSPPQQQVTQTKEERSKADLSKESCKMFIGGLNWDTTEDNLREYFGKYGTVTDLKIMKDPATGRSRGFGFLSFEKPSSVDEVVKTQHILDGKVIDPKRAIPRDEQDKTGKIFVGGIGPDVRPKEFEEFFSQWGTIIDAQLMLDKDTGQSRGFGFVTYDSADAVDRVCQNKFIDFKDRKIEIKRAEPRHMQQKSSNNGGNNGGNNMNRRGGNFGNQGDFNQMYQNPMMGGYNPMMNPQAMTDYYQKMQEYYQQMQKQTGMDYTQMYQQQMQQMAMMMPGFAMPPNAMTLNQPQQDSNATQGSPAPSDSDNNKSNDVQTIGNTSNTDSGSPPLNLPNGPKGPSQYNDDHNSGYGYNRDRGDRDRNDRDRDYNHRSGGNHRRNGRGGRGGYNRRNNGAHPYNR [Y529A]	disrupting interaction
MSSDEEDFNDIYGDDKPTTTEEVKKEEEQNKAGSGTSQLDQLAALQALSSSLNKLNNPNSNNSSSNNSNQDTSSSKQDGTANDKEGSNEDTKNEKKQESATSANANANASSAGPSGLPWEQLQQTMSQFQQPSSQSPPQQQVTQTKEERSKADLSKESCKMFIGGLNWDTTEDNLREYFGKYGTVTDLKIMKDPATGRSRGFGFLSFEKPSSVDEVVKTQHILDGKVIDPKRAIPRDEQDKTGKIFVGGIGPDVRPKEFEEFFSQWGTIIDAQLMLDKDTGQSRGFGFVTYDSADAVDRVCQNKFIDFKDRKIEIKRAEPRHMQQKSSNNGGNNGGNNMNRRGGNFGNQGDFNQMYQNPMMGGYNPMMNPQAMTDYYQKMQEYYQQMQKQTGMDYTQMYQQQMQQMAMMMPGFAMPPNAMTLNQPQQDSNATQGSPAPSDSDNNKSNDVQTIGNTSNTDSGSPPLNLPNGPKGPSQYNDDHNSGYGYNRDRGDRDRNDRDRDYNHRSGGNHRRNGRGGRGGYNRRNNGYHPFNR [Y532F]	disrupting interaction strength
MSSDEEDFNDIYGDDKPTTTEEVKKEEEQNKAGSGTSQLDQLAALQALSSSLNKLNNPNSNNSSSNNSNQDTSSSKQDGTANDKEGSNEDTKNEKKQESATSANANANASSAGPSGLPWEQLQQTMSQFQQPSSQSPPQQQVTQTKEERSKADLSKESCKMFIGGLNWDTTEDNLREYFGKYGTVTDLKIMKDPATGRSRGFGFLSFEKPSSVDEVVKTQHILDGKVIDPKRAIPRDEQDKTGKIFVGGIGPDVRPKEFEEFFSQWGTIIDAQLMLDKDTGQSRGFGFVTYDSADAVDRVCQNKFIDFKDRKIEIKRAEPRHMQQKSSNNGGNNGGNNMNRRGGNFGNQGDFNQMYQNPMMGGYNPMMNPQAMTDYYQKMQEYYQQMQKQTGMDYTQMYQQQMQQMAMMMPGFAMPPNAMTLNQPQQDSNATQGSPAPSDSDNNKSNDVQTIGNTSNTDSGSPPLNLPNGPKGPSQYNDDHNSGYGYNRDRGDRDRNDRDRDYNHRSGGNHRRNGRGGRGGYNRRNNGYHPHNR [Y532H]	disrupting interaction strength
MSSDEEDFNDIYGDDKPTTTEEVKKEEEQNKAGSGTSQLDQLAALQALSSSLNKLNNPNSNNSSSNNSNQDTSSSKQDGTANDKEGSNEDTKNEKKQESATSANANANASSAGPSGLPWEQLQQTMSQFQQPSSQSPPQQQVTQTKEERSKADLSKESCKMFIGGLNWDTTEDNLREYFGKYGTVTDLKIMKDPATGRSRGFGFLSFEKPSSVDEVVKTQHILDGKVIDPKRAIPRDEQDKTGKIFVGGIGPDVRPKEFEEFFSQWGTIIDAQLMLDKDTGQSRGFGFVTYDSADAVDRVCQNKFIDFKDRKIEIKRAEPRHMQQKSSNNGGNNGGNNMNRRGGNFGNQGDFNQMYQNPMMGGYNPMMNPQAMTDYYQKMQEYYQQMQKQTGMDYTQMYQQQMQQMAMMMPGFAMPPNAMTLNQPQQDSNATQGSPAPSDSDNNKSNDVQTIGNTSNTDSGSPPLNLPNGPKGPSQYNDDHNSGYGYNRDRGDRDRNDRDRDYNHRSGGNHRRNGRGGRGGYNRRNNGYHPMNR [Y532M]	disrupting interaction strength

Variants of: B2
Conditions: with imb2_yeast KAP104, P38217

Variant	effect of a mutation on the interaction
MSQEQYTENLKVIVAEKLAGIPNFNEDIKYVAEYIVLLIVNGGTVESVVDELASLFDSVSRDTLANVVQTAFFALEALQQGESAENIVSKIRMMNAQSLGQSDIAQQQQQQQQQQQPDIAQQQPQQQPQQQPQQQPQQQPQQQPQQQPQQQPQQQPQLQPLQPQLGTQNAMQTDAPATPSPISAFSGVVNAAAPPQFAPVDNSQRFTQRGGGAVGAAAAGGRGGNRGGRNNNSTRFNPLAKALGMAGESNMNFTPTKKEGRCRLFPHCPLGRSCPHAHPTKVCNEYPNCPKPPGTCEFLHPNEDEELMKEMERTREEFQKRKADLLAAKRKPVQTGIVLCKFGALCSNPSCPFGHPTPANEDAKVIDLMWCDKNLTCDNPECRKAHSSLSKIKEVKPISQKKAAPPPVEKSLEQCKFGTHCTNKRCKYRHARSHIMCREGANCTRIDCLFGHPINEDCRFGVNCKNIYCLFRHPPGRVLPEKKGAAPNSNVPTNERPFALPENAIIENAPPQTSFTHQEQDTEMN [K216A;N217A;R218A;R219A]	disrupting interaction

— IntAct's records for PubMed 18532879
